Assay: yeast display, Sf9 membrane polyspecificity reagent, FACS + sequencing; frameworks hold sequencing errors
Procedure, shortened: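 Polyreactivity labels are assigned by the sorting gate from which each nanobody was recovered. The gates were low and high (top ~1%), set on anti-HA fluorescence for expression and streptavidin fluorescence for reagent binding. Before sorting, galactose-induced (36–48 hours) yeast display cells were stained for 1 hour at 4 °C with 10% biotinylated, detergent-solubilized Sf9 membrane reagent.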

QVQLVESGGGLVQAGRSLRLTCAASGRTFRAYTMGWYRQAPGKERDLVAAITSSGGGTYYADSVKGRFTISRDNAKNTVYLQMNSLKPEDTAVYYCNDRKQSYPDKYRRDYWGQGTQVTVSS
polyreactivity (PSR sort gate): low polyreactivity

QVQLVESGGGLVQAGGSLRLSCAASGSIFRSNAMGWYRQAAGKERELVAAIDYSGTSTTYADSVKGRFTISRDNAKNTVYLQMNSLKPEDTAVYYCNADGYYRGYWSGYEYWGQGTQVTVSS
polyreactivity (PSR sort gate): low polyreactivity

QVQLVESGGGLVQAGGSLRLSCAASGRTFTGNAMGCYRQAPGKERELVAAISTSGTRTSYADSVKGRFTISRDNAKNTVYLQMNSLKPEDTAVYYCAALRKSLYRTYTYDYWGQGTQVTVSS
polyreactivity (PSR sort gate): high polyreactivity

QVQLVESGGGLVQAGGSLLLSCAASGSIFSIYAMGWYRQAPGKERELVAAISSSGRTYYADSVKGRFTISRDNAKNTVYLQMNSLKPEDTAVYSCNRVREGKHYYYWGQGTQVTVSS
polyreactivity (PSR sort gate): high polyreactivity

QVQLVESGGGLVQAGGSLRLSCAASGSTFRLYAMGWYRPAPGKERELVAGISRTGTSTYYADSVKGRFTISRDNAKNTVYLQMNSLKPEDTAVYYCAAVRYWSDYDYWGQGTQVTVSS
polyreactivity (PSR sort gate): high polyreactivity

QVQLVESGGGLVQAGGSLRLSCAASGSIFGSYAMGWYRQAPGNERELVAAISKSGGNTYYADSVKGRFTISRDNAKNTVYLQMNSLKPEDTAVYYCAARYRFLRPKVNYWGQGTQVTVSS
polyreactivity (PSR sort gate): high polyreactivity

QVQLVESGGGLVQAGGSLRLSCAASGSIFSSYAMGWYRQAPGKERELVAVITSGDSTNYADSVKGRFTISRDNAKNTVYLQMNSLKPEDTAVYYCNADSYGGSDRYDYWGQGTQVTVSS
polyreactivity (PSR sort gate): low polyreactivity

HVQLVESAGGLVPAGGSLRLSCAASGFIVWWYPMGWYRQAPGKERELVASITRGGRTNYADSVKGRFTISRDNAKNTVYLHMNSLKPEDTAVYYCAADVLLSRSNTPQRPSRLYYWGQVTQVTVSS
polyreactivity (PSR sort gate): high polyreactivity

QVQLVESGGGLVQAGGSLRLSCAASGRILPFYAMGWYRQAPGKERELVATISWTSDSTYYADSVKGRFTISRDNAKNTVYLQMNSLKPEDTAVYYCAREYTYTYASTVIYDHWGQGTQVTVSS
polyreactivity (PSR sort gate): low polyreactivity

QVQLVESGGGLVQAGGSLRLSCAASGRTFAVNALGWYRQAPGKERELVAAIRTGSTYYADSVKGRFTISRDNAKNTVYLQMNSLKPEDTAVYFCAAPYRADSYDYWGQGTQVTVSS
polyreactivity (PSR sort gate): high polyreactivity

QVQLVESGGGLVQAGGSLRLSCAASGLTFKSYAMGWYRQAPGKETELVAAISWRGGRTYYADSVKGRFTISRDNAKNTVYLQMNSLKPEDTAVYYCNARSQQWWLSRYNYWGQGTQVTVSS
polyreactivity (PSR sort gate): high polyreactivity

QDQLVESGGGLVQAGGSLRLSCAASGRTFNYYGMGWYRQAPGKERELVAAISRGGTTNYADSVKGRFTISRDNAKNTVYLQMNSLKPEDTAVYYCAKGRSHWHSYQYVRPNYDYLGQGTQVTVSS
polyreactivity (PSR sort gate): high polyreactivity

QVQLVESGGGLVQAGGSLRLSCAASGLIFLVNAMGWYRQAPGKERELVAAIDRDGGITYADSVKGRFTISRDNAKNTVYLQMNSQKPEDTAVYYCAADPSSYGRFTYDYWGQGTQVTVSS
polyreactivity (PSR sort gate): low polyreactivity

QVQLVESVGGLVQAGGSLRLSSAASGSTFRGYALGWYRQSPGKERELVASISWSGGSTYYADSVKGRFTISRDNAKNTVYLQMNSLKQEDTAVYYCAARKRWRNIRMDYWGQGTQVTVSS
polyreactivity (PSR sort gate): high polyreactivity

QVHLVESGGGIVQAGGSLRLSCAASGIIFHWYAMGWYRQAPGKERELVAAITQSGGSTSYADSVKGRFTISRDNAKNTVYLQMNSLKPEDTAVYNCSKDYAYTLWENYYAFNYWGQGTQVTVSS
polyreactivity (PSR sort gate): low polyreactivity

QVQLVESGGGLVQAGGSLRLSCAASGSIFYGYAMGWYRQAPGKERELVAAISWTGGRTYYADSVKGRFTISRDNAKNTVYLQMNSLKPEDTAVYYCNVRRYSVVSGGYCGQGTQVTVSS
polyreactivity (PSR sort gate): high polyreactivity

QVQLVESGGGLVQAGGSLRVSCAPSGRTFRYNTMGWYRPAPGKERELVARITWSGGSTYYADSVKGRFTISRDNAKNTVYLQMNSLKPEDTAVSYCAAGSGWRFDYWGQGTQVTVSS
polyreactivity (PSR sort gate): low polyreactivity

QVQLVESGGGLVQAGGSLRLSCAASGSIFDYYTMGWYRQAPGKERELVASITQSGGSTYYADSVKGRFTISRDNAKNTVYLQMNSLKPEDTAVYYCAADFSIVKMDYWGQGTQVTVSS
polyreactivity (PSR sort gate): low polyreactivity

QVQLVESGGGLVQAGGRLRLSCAASGFTFPLYTMGWYRQEPGKERELVAAITWSGGSTYADSLKGRFTISRDNAKNTVYLQMNSLNPEDTEVYYCNRRLQPRGAGHNSWGQGTQVTVSS
polyreactivity (PSR sort gate): high polyreactivity

QVQLVESGGGLVQAGGSLRLSCAASGSIFYRNAMGWYRQAPGKERELVAVITRRGGRTYYADSVKGRFTISRDNAKNTVDLQMNSLKPEDTAVYYCNADTANYADGLDYWGQGTQVTVSS
polyreactivity (PSR sort gate): low polyreactivity

QVQLVESGGGLVLAGGSLRLSCPASGSIFGGYAMGWYRQAHGKERELVAAISYRGASTYYADSVKGRFTISRDNAKNTVYLQMNSLKPEDTAVYYCAVAARTRARVLYGYDYWGQGTQVTVSS
polyreactivity (PSR sort gate): low polyreactivity

QVQLVESGGGLVQAGGSLRLSCAASGSILHPNGMGWYRQATGKERELVAAITINGDSTYYADSVKGRFTISRDNAKNTVYLQMNCLKPEDTAVYYCAVDGWPTGWYYYWGHGTQVTVSS
polyreactivity (PSR sort gate): low polyreactivity

QVQLVESGGGLVQAGGSLRLSCAASGGIFGSYAMGWYRQAPGKERELVAAITSGGRTTYADSVKGRFTISRDNAKNTVYLQMNSLKPEDTAVYYCNAGRVFGNYFFRVYYYWGQGTQVTVSS
polyreactivity (PSR sort gate): high polyreactivity

QVQLVESWGGLVQAGGSLRLSCAASGRTNGYAMGWYRQAPGKERELVARITWRGGSTSYADSVKGRFTISRDNAKNTVYLQMNSLKREDTAVYYCAAGFYFPVYTYVRKRYYYWGQGTQVTVSS
polyreactivity (PSR sort gate): high polyreactivity

QVQLVESGGGLVKAGGSLRLSFAAYGSNFPRYALGWYRQATGKERELVASITSDGGSTYYADSVKGRFTISRDNAKNTVYLQMNSLKPEDTAVYYCNKVPYRGYRRYGYWGQGTQVTVSS
polyreactivity (PSR sort gate): high polyreactivity

QVQLVESGGGLVQAGGSLRLSCAASGSTFAANAMGWYRQAPGKERELVAAITSSGGSTYYADSVKGRFTISRDNAKNTVYLQMNSLKPEDTAVYYRNKDIERYVRIYDSWGQGTQVTVSS
polyreactivity (PSR sort gate): low polyreactivity

QVQLVESGGGLVQAGGSLRLSCAASGSTFYLYAMGWYRQAPGKEREFVAAISWSGGRTYYAYSVKGRFTISRDNAKNTVYLQMNSLKPEDTAVYYCAARRRYTWQYTRYDMGYWGQGTQVTVSS
polyreactivity (PSR sort gate): low polyreactivity

QVQLVESGGGLVQAGGSLRLSCAASGRTIIVYAMGWYRQAPGKERELVASITGIGDRTYYADSVKGRFTISRDNAKNTVYLQMNSLKPEDTAVYYCAKYGRTRFYYWGQGTQVTVSS
polyreactivity (PSR sort gate): high polyreactivity

QVQLVESGGGLVQAGGSLRLSCAASGRIFVGNALGWYRKAPGKERELVAAISGSGDSTYYADSVKGRFTISRDNAKNTVYLQMNSLKPEDTAVYYCNVDYDFVIYYYWYYPGYDYWGQGTQVTVSS
polyreactivity (PSR sort gate): low polyreactivity

QVQLLESGGGLVQAGGSLRLSCAASGSISVAYAMGWYRQAPGKERELVATIRSGDSTYYADSVKGRFTISRDNAKNTVYLQMNSLKPEDTAVYYCNADATDSYPEKDEHDSWGQGTQVTVSS
polyreactivity (PSR sort gate): low polyreactivity

QVQLVESGGGLGQAGGSLRLSCAASGYTFRNYVMGWYRPAPGKERQLVATISRGGRTNYADSVKGRFTISRDNAKNTVYLQMNSLKPEDTAVYYCNADWSRVPYRYDYWGQGTQVTVSS
polyreactivity (PSR sort gate): high polyreactivity

QVQLVESGGGLVQAGGSHRLSCAASGSIFRGYAMGWNRHAPRKERELVASITWSSGSTYYADSVKGRFTISRDNAKITVYLQMNSLKPEDTAVYDCAADVEYWSYEFNYWGQGTQVTVSS
polyreactivity (PSR sort gate): low polyreactivity

QVQLVESGGGLVQAGGSLRLSCASSGFTFWRNAMGWYRQAPGKERELVAAINWSGGSTYYADSVKGRFTISRDNAKNTVYLQMNSLKPEDTAVYYCAADLSSRGISQDDYWGQCTQVTVSS
polyreactivity (PSR sort gate): high polyreactivity

QVQLVESGGGLVQAGGSLRLSCAASGIIFWYNAMGWYRQAPGKERELVAAISWSGGRTYYADSVKGRFTISRDNAKNTVYLQMNSLKPEDTAVYYCAAKVPRSSRSYGYWGQGTQVTVSS
polyreactivity (PSR sort gate): high polyreactivity

QVQLVESGGGLVQAGGSLRLSCAASGSTFVVNAMGWYSQAPGKERELVAAIDGSDGSTYYADSVKGRFTISRDNAKNTVYLQMNSLKPEDTAVYYCAAEVLGRPDVENDYWGQGTHVTVSS
polyreactivity (PSR sort gate): low polyreactivity

QVQLVESGGGLVQAGGSLRLSCAASGSIFRSNTMGWYRQAPGKERELVAGISYSGGSTYADSVKGRFTISRDNAKNTVYLQMNSLKTEDTAVYYCARRVYSYVVLYFSYYYWGQGTQVTVSS
polyreactivity (PSR sort gate): low polyreactivity

QDQLVESGGGLVQAGGSLRLSCAASGSTFKYYAMGWYRQAPGKERELVAAISWTGGSTYYADSVKGRFTISRDNAKNTVYLQMNSLKPEDTAVYYCNAMGHVQGYDYWGQVTQVTVSS
polyreactivity (PSR sort gate): high polyreactivity

QVQHVESGGGLVQAGGSLRLSSAASGSIFSYNAMGWYRQSPGKERELVAAIRASGGDTYYADSVKGRFTISRDNAKNTVYLQMNSLKPEDTAVYYCAARTYSHHYASHGYWGQGTQVTVSS
polyreactivity (PSR sort gate): low polyreactivity

QVQLVESGGGLVQAGGSLRLSCAASGSIFGIYAMGWYRQAPGKERELVAAISRSGGRTYYADSVKGRFTISRDNAKNTVYLQMNSLKPEDTAVYYCAARPPGGYLYDYWGQGTQVTVSS
polyreactivity (PSR sort gate): high polyreactivity

QVQLVESGGGLVQAGGSLRLSCAASGLTFGDYAMGWYRQAPGKERELVAVISRSGGSTYYADSVKGRFTISRDNAKNTVYLQMNSLKTEDTAVYYCDKDAGLQKYHHDYWGQGTQVTVSS
polyreactivity (PSR sort gate): low polyreactivity

QVQLVESGGGLVQAGGSLRLSCAASGSIFQVYSMGWYRQAPGKEREFVAAISFSGGGTYYADSVKGRFTISRDNAKNTVYLQMNSMKPEDTAVYYCAADVSGWEYDYWGQGTQVTVSS
polyreactivity (PSR sort gate): low polyreactivity

QVQLVESGGGLVQAGGSLRLSCAASGRTFFWNAMGWYRQAPGKERELVAAITWSGGSTYYADSVKGRFTISRDNAKTTVYLQMNSLKPEDTAVYYCAAVVSDYVWRYEYWGQGTQVTVSS
polyreactivity (PSR sort gate): low polyreactivity

QVQLVESGGGLVQAGGSLRLSCAASGRTFYNYAMGGYRQAPGKERELVAAISWSDGTTYYADSVKGRFTISRDNAKNTVYLQMNSLKPEDTAVYYCAAEFESSFALGFYYWGQGTQVTVSS
polyreactivity (PSR sort gate): high polyreactivity
